Laboratory results as given in the supplement of paper PMC9170038.

System: MS2 coat protein
Assay: apparent KD of MS2 coat protein; designed switch direction (-1 OFF switch, 1 ON switch): -1; higher = weaker reporter binding
Method in brief: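 Three titration conditions were used: no input, 200 uM small-molecule ligand, and an oligonucleotide input. In each, SNAP-549-labelled MS2 coat protein was raised from 0.7 or 1.5 nM, doubling, to 3 µM over designed RNA switches transcribed on Illumina chips by stalled E. coli RNA polymerase. Curve fits of normalised cluster fluorescence gave values whose per-design median over clusters is the apparent KD.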

[1] = Eterna round: R95, input ligand: FMN 200 uM
[2] = Eterna round: R95, input ligand: microRNA oligo, concentration not stated
[3] = Eterna round: R95, input ligand: none
[4] = input ligand: microRNA oligo, concentration not stated

Row | Sequence | apparent KD of MS2 coat protein (input ligand: FMN 200 uM) | apparent KD of MS2 coat protein (input ligand: none) | apparent KD of MS2 coat protein [1] | apparent KD of MS2 coat protein [2] | apparent KD of MS2 coat protein [3] | apparent KD of MS2 coat protein [4]
1 | GUUUGCGCAGGAUAUACUCCUCCAUGUUAAGAGCAUGUGCGACAUGAGGAUCACCCAUGUAGAAGGGCGAGACG [Eternabot (L2) Solution 8] (Eterna round: R97, puzzle: Exclusion 2) | 194 nM | 345 nM | – | – | – | –
2 | GUUUUCAGACGGAGAUCCUACAUGAGGAUCACCCAUGUCUCACUUGUUUUUUGCUCGUCUUAUCCUCCUCUGUUCUC [Elimod 30 - Jieux - Sensor, turn-off variant 1] (Eterna round: R97, puzzle: Sensor, turn-off variant 1) | 414 nM | 667 nM | – | – | – | –
3 | GUUUUCAGACGGAGAUCCUACAUGAGGAUCACCCAUGUCUCUCUUGUUUUUUGCUCGUCUUAUCCUCCUCUGUUCUC [Elimod 31 - Jieux - Sensor, turn-off variant 1] (Eterna round: R97, puzzle: Sensor, turn-off variant 1) | 467 nM | 520 nM | – | – | – | –
4 | GUUUUGGGAGGAUAUAUGUGGAUAAUUUUUAUAUGAAAAUUACAUGAGGAUCACCCAUGUAGAAGGUCUAGAGC [-17.2, -15.1 kcal, 32% A] (Eterna round: R97, puzzle: Exclusion 2) | 473 nM | 637 nM | – | – | – | –
5 | GUUUUGUGAGGAUAUCCCUAUCAUCUAGCUGACUAGAUGGUGGAGAAGGCACAUGAGGAUCACCCAUGUGGGAG [Eternabot (L1) Solution 3] (Eterna round: R97, puzzle: Exclusion 4) | 111 nM | 90.1 nM | – | – | – | –
6 | UAAAAGGUAGGAUAUACGAAAAAAAAGGGUAGAAAAAAAACACAUGAGGAUCACCCAUGUAGAAGGACCAAAAU [salish99_ex2_r3_041] (puzzle: Exclusion 2) | – | – | 89.7 nM | 28.6 nM | 26.9 nM | –
7 | UAAAAGUGAGGAUAUACGUGAAAUCCGCCAGGCGGAGAUCUACAUGAGGAUCACCCAUGUAGAAGGCACGGAAU [EX2 A.13] (Eterna round: R97, puzzle: Exclusion 2) | 15.8 nM | 14 nM | – | – | – | –
8 | UAAACCAGAGGAUAUGCGAAUAAAUAAAACUUUUUUUUUUAACAUGAGGAUCACCCAUGUAGAAGGCUGCAAAU [Ex2 #33] (Eterna round: R97, puzzle: Exclusion 2) | 30 nM | 38.9 nM | – | – | – | –
9 | UAAAGAGCAGGAUAUCUAAUGUAUCACAUGAGGAUCACCCAUGUCCAGCGAAAGCUGGAGGGAGAAGGGCUCUAAU [Mat - Exclusion 5 - Eli mod - D103] (puzzle: Exclusion 5) | – | – | 178 nM | 182 nM | 130 nM | –
10 | UAAAGGCUAGGAUAUCGCACCUUCGACAUGAGGAUCACCCAUGUAUGUCGAUGGUAAAAUCGAGAAGGAGCGAGAA [Artiedqu] (puzzle: Exclusion 5) | – | – | 31.7 nM | 21.7 nM | 17.8 nM | –
11 | UAAAGUAUAUAGGAUAUCUAGCUGGUAACAGCUAGAGAAGGAUGUACAUGAGGAUCACCCAUGUAAAUCGUGAA [Ex6/13-A2] (Eterna round: R97, puzzle: Exclusion 6) | 20.5 nM | 16.9 nM | – | – | – | –
12 | UAAAUCGCAGGAUAUCCAGAGGAGGACAUGAGGAUCACCCAUGUGGAAAGGAAAGGAGGAGGAGAAGGGCGAUUUA [Paired] (Eterna round: R97, puzzle: Exclusion 5) | 84.4 nM | 72.5 nM | – | – | – | –
13 | UAAAUGCUGCGAGGAUAUACAUGAGGAUCACCCAUGUGGAUGUCUGAGGCUUUGCCUCAGACGAUGUAGAAGGCGCAGUAAAAU [Mat - Exclusion NG 2 - Mod of JL - D52] (Eterna round: R96, puzzle: Exclusion NG 2) | 134 nM | 22.5 nM | – | – | – | 15.7 nM
14 | UAAAUGUGAGGAUAUCAGGUGUGCUAGAAUACUGGUACAUCUGAGAAGGCACAUGAGGAUCACCCAUGUUCCUU [Mat - Exclusion 4 - Mod of JL - D53] (puzzle: Exclusion 4) | – | – | – | 15.8 nM | – | –
15 | UAACAACAUGAGGAUCACCCAUGUGAGGAUAUGUACGUUCGUUGGCGAACCUUGUUCCGCAGAAGGCAUGUGGG [Eternabot (L1) Solution 28] (Eterna round: R97, puzzle: Exclusion 1) | 232 nM | 38.6 nM | – | – | – | –
16 | UAACAAGCUUAAAGAUCCUACAUGAGGAUCACCCAUGUGCUCGUCUUAUAACGUACUGUGACGAAAGUCACGGUACG [JL TOV1 3.14] (Eterna round: R97, puzzle: Sensor, turn-off variant 1) | 348 nM | 395 nM | – | – | – | –
17 | UAACAAGCUUAAAGAUCCUACAUGAGGAUCACCCAUGUGCUCGUCUUGUAACGUACUGUGACGAAAGUCACGGUACG [JL TOV1 3.15] (Eterna round: R97, puzzle: Sensor, turn-off variant 1) | 521 nM | 314 nM | – | – | – | –

Row | Sequence | apparent KD of MS2 coat protein (input ligand: FMN 200 uM) | apparent KD of MS2 coat protein (input ligand: none) | apparent KD of MS2 coat protein [1] | apparent KD of MS2 coat protein [2] | apparent KD of MS2 coat protein [3] | apparent KD of MS2 coat protein [4]
18 | UAACAGCAAGGAUAUACGGGCUGUGCUUUUCAUUUCUUACAACAUGAGGAUCACCCAUGUAGAAGGUGCAACAA [Ex2 #6] (Eterna round: R97, puzzle: Exclusion 2) | 54.4 nM | 24.8 nM | – | – | – | –
19 | UAACAUCUGAUUCUUGAGAUACAUGAGGAUCACCCAUGUUCACAGGAUAUUGAUUUUAAGAAAAGCAAGAAGGGUGAAUCAUUU [JR_ExcNG3_Sub042] (Eterna round: R96, puzzle: Exclusion NG 3) | 34.1 nM | 20.7 nM | – | – | – | 19 nM
20 | UAACAUGUACAAGGAUAUCAGCACGAUUAGUGCUGAGAAGGUGUAACAUGAGGAUCACCCAUGUAGAUCAUUAAUUAAUUAAUU [ENG1/9-B1] (Eterna round: R96, puzzle: Exclusion NG 1) | 319 nM | 56.6 nM | – | – | – | 60.9 nM
21 | UAACAUGUCUGAGGAUAUCUGCACGUGUAGUGCAGAGAAGGCAGAACAUGAGGAUCACCCAUGUAGAUCAUUAAUUAAUUAAUU [ENG1/7-B3] (Eterna round: R96, puzzle: Exclusion NG 1) | 765 nM | 478 nM | – | – | – | 337 nM
22 | UAACAUGUCUGAGGAUAUCUGCACGUUUAGUGCAGAGAAGGCAGAACAUGAGGAUCACCCAUGUAGAUCAUUAAUUAAUUAAUU [ENG1/7-B2] (Eterna round: R96, puzzle: Exclusion NG 1) | 195 nM | 194 nM | – | – | – | 142 nM
23 | UAACCUCGCGUCAGGAUAUGCGAGGACUGUGACGUGCAGAAGGGACAUGAGGAUCACCCAUGUGAAAGAAUUAA [Acecequ] (puzzle: Brourd's mod of Exclusion 4) | – | – | – | 20.3 nM | – | –
24 | UAACUACAUGAGGAUCACCCAUGUCAGGAUAUGCCGUUAAAUUAACAUCAACAUACGGGUAGAAGGGACAGCGU [1st #4] (Eterna round: R97, puzzle: Exclusion 1) | 30 nM | 29.2 nM | – | – | – | –
25 | UAAGAAUGCAAGGAUAUGGCUAGGUAAAACAUGUCAGAAGGUGCUACAUGAGGAUCACCCAUGUGUCUCGUGCG [Eternabot (L1) Solution 2] (Eterna round: R97, puzzle: Exclusion 6) | 75.8 nM | 64.3 nM | – | – | – | –
26 | UAAGAGUGAGGAUAUACGUCGCUGGUCCAGAUGGACGCAUGACAUGAGGAUCACCCAUGUAGAAGGCACAAAAC [Enxela Mod 3 - Jieux - Exclusion 2] (Eterna round: R97, puzzle: Exclusion 2) | 189 nM | 32.8 nM | – | – | – | –
27 | UAAGUUCAGUAGGAUAUUCAGCAGCUGCUGCUAGGAGAAGGGCUGACAUGAGGAUCACCCAUGUGAGUGUCCGU [Eternabot (L2) Solution 55] (Eterna round: R97, puzzle: Exclusion 6) | 92.2 nM | 32.1 nM | – | – | – | –
28 | UAAUAAAGUGUGAGGAUAUGCUGGUCCUUGGAUCAGCAGAAGGCACAUGAGGAUCACCCAUGUAAUAUAUAAAU [Mat - Exclusion 4 - JL Mod - D55] (puzzle: Brourd's mod of Exclusion 4) | – | – | – | 70.4 nM | – | –
29 | UAAUAAAGUGUGAGGAUAUGCUGGUCCUUGGAUCAGCAGAAGGCACAUGAGGAUCACCCAUGUAAUAUAUAUAU [Mat - Exclusion 4 - JL Mod - D54] (puzzle: Brourd's mod of Exclusion 4) | – | – | – | 62.4 nM | – | –
30 | UAAUAACAAGCAGGAUCCUACAUGAGGAUCACCCAUGUGCUCGUCUUAUAAAGUACUAUCACGAAAGUGAUAGUACU [Mat - Sensor v3 - turn-off var 1 - Eli Mod - D73] (puzzle: Sensor v3, turn-off variant 1) | – | – | 208 nM | 71.9 nM | 250 nM | –
31 | UAAUACAUCUAUGGGAGUAACAUGAGGAUCACCCAUGUAUGUCUUGUUUUUUGUUCGUCAUAGACUUUCUGAUCAGU [JR_SV3TOV1_Sub029] (puzzle: Sensor v3, turn-off variant 1) | – | – | 47.9 nM | 175 nM | 52.2 nM | –
32 | UAAUGUGCGAGAGGAUAUCGUGUACAAAGUACACGAGAAGGCUUCACAUGAGGAUCACCCAUGUACCGAGGUGAAACACCUUGG [Omei Exc(NG)1 Bv1] (Eterna round: R96, puzzle: Exclusion NG 1) | 355 nM | 220 nM | – | – | – | 171 nM
33 | UAAUUAAAUGUAAGGAUAUGGCAAUGCGGUGGCAGUUAGAAGGUACAUGAGGAUCACCCAUGUGUGUAUCGUGA [Eternabot (L1) Solution 93] (Eterna round: R97, puzzle: Brourd's mod of Exclusion 4) | 233 nM | 248 nM | – | – | – | –
